Article PMC12243196, “Division of the large and multifunctional glycoside hydrolase family 2: high functional specificity and biochemical assays in the uncharacterized subfamilies” (Biotechnology for Biofuels and Bioproducts, 2025)
Like-named read-outs stand apart in the source and are kept apart here.

Assays:
[1] = target: T1, AmGH2_9 (Akkermansia muciniphila, UniProt B2UM41); assay: activity screening, absorbance at […] nm; type: biochemical
T1 construct: gene Amuc_1667

[2] = tested on: T2, BfGH2_9
T2 construct: gene BF638R_1918
T2 sequence (E1WVB9 30-864 limits assumed): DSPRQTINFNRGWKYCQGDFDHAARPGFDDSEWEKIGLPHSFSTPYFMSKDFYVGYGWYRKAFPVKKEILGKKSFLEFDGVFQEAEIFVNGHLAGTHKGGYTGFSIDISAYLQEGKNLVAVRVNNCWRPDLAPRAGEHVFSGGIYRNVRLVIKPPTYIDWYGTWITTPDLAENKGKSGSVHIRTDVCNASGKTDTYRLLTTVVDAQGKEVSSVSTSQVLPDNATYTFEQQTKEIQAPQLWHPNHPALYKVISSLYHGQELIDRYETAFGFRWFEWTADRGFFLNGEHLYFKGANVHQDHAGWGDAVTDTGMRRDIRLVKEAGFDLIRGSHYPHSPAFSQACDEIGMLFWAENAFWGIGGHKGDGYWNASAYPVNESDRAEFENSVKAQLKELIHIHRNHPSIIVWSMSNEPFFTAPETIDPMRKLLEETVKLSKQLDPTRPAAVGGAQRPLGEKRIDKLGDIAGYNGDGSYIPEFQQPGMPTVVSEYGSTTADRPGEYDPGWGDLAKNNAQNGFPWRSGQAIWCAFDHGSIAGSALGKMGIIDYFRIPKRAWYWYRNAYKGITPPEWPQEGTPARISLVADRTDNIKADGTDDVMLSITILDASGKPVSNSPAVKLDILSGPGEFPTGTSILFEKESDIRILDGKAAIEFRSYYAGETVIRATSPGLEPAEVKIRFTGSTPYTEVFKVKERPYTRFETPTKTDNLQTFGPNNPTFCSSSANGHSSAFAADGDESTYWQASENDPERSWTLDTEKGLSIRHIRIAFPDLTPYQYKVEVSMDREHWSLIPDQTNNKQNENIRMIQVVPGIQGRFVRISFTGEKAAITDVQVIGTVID

[3] = substrate: O=[N+]([O-])c1ccc(O[C@@H]2O[C@H](CO)[C@H](O)[C@H](O)[C@H]2O)cc1; assay: purified protein

T1 sequence (B2UM41 entry or part of it): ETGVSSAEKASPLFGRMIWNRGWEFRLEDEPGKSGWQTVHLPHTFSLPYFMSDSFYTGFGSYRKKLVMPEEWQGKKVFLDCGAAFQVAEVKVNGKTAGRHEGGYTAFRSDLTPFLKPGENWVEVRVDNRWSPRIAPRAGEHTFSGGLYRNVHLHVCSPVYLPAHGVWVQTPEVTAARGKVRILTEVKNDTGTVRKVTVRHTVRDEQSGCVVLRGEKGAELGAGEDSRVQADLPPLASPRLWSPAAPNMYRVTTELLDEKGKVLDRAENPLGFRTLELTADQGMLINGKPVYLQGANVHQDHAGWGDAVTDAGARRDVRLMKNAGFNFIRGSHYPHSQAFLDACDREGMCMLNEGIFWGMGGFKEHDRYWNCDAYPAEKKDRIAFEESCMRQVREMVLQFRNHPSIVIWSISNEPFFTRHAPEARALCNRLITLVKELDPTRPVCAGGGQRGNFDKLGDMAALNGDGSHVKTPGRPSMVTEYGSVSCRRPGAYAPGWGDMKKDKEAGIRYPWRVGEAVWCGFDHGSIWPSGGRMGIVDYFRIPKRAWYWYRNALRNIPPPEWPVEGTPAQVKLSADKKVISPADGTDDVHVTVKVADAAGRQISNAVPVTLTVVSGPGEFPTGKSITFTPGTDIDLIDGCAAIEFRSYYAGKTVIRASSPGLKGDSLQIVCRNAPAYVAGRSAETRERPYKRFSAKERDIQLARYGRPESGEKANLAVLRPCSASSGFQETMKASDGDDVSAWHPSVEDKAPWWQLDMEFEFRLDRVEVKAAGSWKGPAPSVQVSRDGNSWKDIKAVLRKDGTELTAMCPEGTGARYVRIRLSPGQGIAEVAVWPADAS

O=[N+]([O-])c1ccccc1O[C@@H]1O[C@H](CO)[C@H](O)[C@H](O)[C@H]1O [oNP-β-D-Galp]
activity screening, absorbance at 405 nm [1]: All the enzymes also displayed activity on oNP-β-D-Galp (data not shown)
activity screening, absorbance at 405 nm [2]: All the enzymes also displayed activity on oNP-β-D-Galp (data not shown)

B1: (Ruminiclostridium cellobioparum subsp. termitidis CT1112) (protein)
chain: MNNRKQICLNGLWDFCPGNGTLDRIPRKWDKTQIKVPSPWNINTFAGPEKLTCGEEEIFLRGGEFNLYPEYPKAWENAQSGWYKTEMFIDEEWRGKVITLKFNAVLFYSEFYINGKLISTDADGFLPHEFPVQDHVKYGGSNTLVVGVKKLDAFRYKNEAGKNRIEYPTGSFWGKTMGGIWQDVYLNVYPHDHITDIFVRTDVNSNILRVDADLAADRGEDFTVGMVLREWSGDRSFKLACGLPVNGNSVEFIFDYSGIKDEIRQWWPDSPELYYIDVILHSGNEIVDVKTARFGFKSFEVRGKQFYLNGTPINLRNDSWHYMGFAYQNEEYARLWYKMARDANVNCIRLHAQVYPEFFLDMADEMGMMIVDETSIWASHCEFHYSMEFVENGKKHIKRMIERDRNHPSIIIWSVENECIMAYRVSADDGVKDENELNERLFLLAEYAGSLDPTRPVSGDGSQDMGGRLDVYSLHYPGKKGPENVNKPVTIGEMGSLYYATPDCVCNQYGEKTYLSFDGRLEAIGRELFENLKHERKWAAQVCVFNLVWYGLKPLPFKERIINYPDLSLPGVKPTRTGPYISTLNAAYDDSLPEYIPNTVFEWVRQAYLPERFFFEEGRSRYYNGEAGAKKISVFNDSFEEKEYILEWQMEQKGEILGSGNKSVLVNPAGYEELDIEFDLPAADSIERLSLRILMKFRDNIVFEDVCSIKVYNKNHIFSFMGGFGKVGILGGSRLDANEFFEKSGIETVDGLTQGIDIYLLEECTEEAAAGLTWACCSVLDLLPEKHGFKSWLSHGSAENAFLNVDDRTLMENLEEEDLSNWGNGYLCNNTFQDNLCVSAFNLFCTGKGIPLILDVKNGKARQLVSTIPLLKWAAEEPAALVLLSNLIAYAAQTGKTEAHECVLVSKKDSDMHRSFENMGIDFTLAEVKNRDQIRSLREVKLLVADGSCRLDYLDEIMPYNAEQILLCNFDEATLPDSLKGYIEVVEKPLYQLIKAGKDNALTDGIHAGDLYGLEAGQETVICKRPFLIKDDRKVKGLLKNADLNWRMWNFQGEDRKTVSILRSEQETKTPLYGLAETHINTVKVILGQIDMSYANRKLERLASRFFLQYGTYSKL
Km ([3]; 40.0 °C): 40 ± 1.2 µM
kcat ([3]; 40.0 °C): 0.0233 s⁻¹
kcat/Km ([3]; 40.0 °C): 586 M⁻¹ s⁻¹

B2: (Saccharophagus degradans 2-40) (protein)
chain: MVVNTDITQWSLTKTNANGAQTPADIIPLQQWLAVPVPGTVAQAVGDAGPQEDLEQFDWWYTAQFPLPKTGKRTYLQCDGLATLSEVWVNDQQVLYSQSMFENHKLDITDYLQADNTLAIVFKALAPHLAERRARPQWKTNLVDNQNLRWFRTSLLGRMPGWTPPVKAIGPWRDISIVSVAKFDLVECTVFSEVDEALNGKVHINLELDFIDAKLAADPQIQFLLDGKIYPITAKPIKGGGAFIDTEIAIEQPQLWWPHTHGEPYLHAYKITAIIDGEVTTLTEGKLGFKRVTAANQTNQLALEVNNNKIFCRGACWATPNITSLNASKQEYRHLLKLLVDAGANMVRIGGTMVYEHDDFYALCDELGILVWQDFMFANMDYPFADEDFSKLVAKEVRQQITRLKQTASIAVFCGNSEMQQQAAMMGMEQTQWANALFDTFITQKLEEQQLTLPYFTSSPCEGGLPFHTDAGLTHYYGVGAYKLMPDHFTVREVGFTSECLGFSHIPVTASLKQAFESPYPATHTPSWKAGIPRDNSAGWDFEDIRNFYLEKIFGVVADTLRYSDPETYFKLATIATAEMVSSVYSIWRASISNCNGALAWFYQDIVAGAGWGIVDSFARPKAAYYFLKRVWQPQQVLLINNSLNGYTLEVQNETAHTLQAQLNIVLVGLSDNIVAEHTQEITLAANSVGTHKLDTVFGRFMDATHAYKFGRQTIYAVVAELRNESGELISQAVSFPGCRRINTGAGEITGSITSDSDNESVVTLTPSVFVEYACLESKTTQFSDNYTCMLPGKTYSFKACEQIKSVHVSTLNLQKEFRVT
Km ([3]; 40.0 °C): 64 ± 12.6 µM
kcat ([3]; 40.0 °C): 0.02 s⁻¹
kcat/Km ([3]; 40.0 °C): 306 M⁻¹ s⁻¹

B3: (Zobellia galactanivorans) (protein)
chain: QTEKVDLPGEERMLLSGNWKFHAIYGEGSNYIDISETLEDIVIDNTDKDRVSVKGDWKTRSEGERGSGFLGTDYLQRDFKSGESDQNYVRYRPELPESGFYEAFVRFPFASHLTAEVNVNHAQGITAAYFNQRNRCDQWLSLGVFSFDKTLDSYVEVTAITASTVVADAVMFRPVSKEKMEEADIEKSSVFQVDFDDSNWKDLRVPGHWGMLNAYSNYTGKGWYRKTFELPKNWKSVSNERIRLKFDAVYHIARVFLNGELVGLHQGGFTPFEFDITDKLNYNGQNVLAVEADNNALVGATWNWGGIIREVHLIKNNDVRISYQYIHADPDLKKGSANLKLKVRIKNSSTRQRTVLLAAHIEEASSPVDLTYKVKVPANSTQEIQLATTLPATDVKLWHFDTPNLYHLTTTISENGQVLDTQKDRFGIRKIELTDSQLILNGEPVRLSGFNRVSDHRYWGSSEPQYLIDKDVDLMKNAGANFMRIMHGTQNKKLMDRCDEKGILIFEEVNVRELTNPEFTPPHYPLAKQWLKEMIERDVNHPSIIGWSVGNELKDHFDYAKETIDYVKKELDPYRLVTCVSNSGWRDSATPEKDPNTLVDIIMHNLYPFQGTPDKVFKTLRAKWPDKPIFISEYGIKPMATTSLDGDIPELSEWNDHLRGKNTYVIGASLWTFNDYRSGYAATSPEENRVWGLVNTWRQKRKLYHRIQKENSPLADLKIDGIDLKNGGAKVRITPKPVNGYPVYSLKGYTLEFTMYDKQGEILFSKTHSLPHIVPGGKPTEVAIDWQRYMTGMAQIHAAVISPNGYIRHQTSISLELPEKTSILAIEKGHGTVRVHYRPVFGADTYYVAYADGKGLERKSDTSTTHSIEIKDLDPEEEYAFSVIAQNSKGKSVPSGTRTTKANADVLPPMIWDAFLSDGKLVVGYSGAPDDVEYIVKYGLRDSYFPYKNSTRTKGMTVIDFEGDDPHFVSIKKKTKTGESDWSKPIHVYTIRNKERYRN
Km [3]: 67 ± 8.3 µM
kcat [3]: 0.0133 s⁻¹
kcat/Km [3]: 204 M⁻¹ s⁻¹
